Here are results for two molecules from publication PMC10842940, “Establishment of dsDNA-dsDNA interactions by the condensin complex” (Molecular cell, 2023).

The test system of data set [1] is condensin pentamer (Schizosaccharomyces pombe). Kind of data set: condensin immunoprecipitation, 500 mM NaCl wash. As to conditions: Mg2+, ATP, binding buffer, pH and temperature not given in material, washes at 500 mM NaCl (topological loading) or 100 mM NaCl (gripping state).
The test system of data set [2] is condensin pentamer;condensin pentamer (Schizosaccharomyces pombe;Schizosaccharomyces pombe). As to the kind of experiment: second DNA capture by condensin preloaded on bead-bound DIG-5kb-DIG. Conditions: binding buffer, pH and temperature not given in material; Mg2+ and ATP; washes at 500 mM NaCl (topological loading) or 100 mM NaCl (gripping state).
Data set [3] concerns the target T1, Cnd1^Ycs4 (fission yeast condensin HEAT-repeat subunit) (S. pombe, UniProt O94679 1-1158).
T1 construct: Cnd1 (Ycs4), S. pombe condensin HEAT-repeat subunit; cDNA cloned into an S. cerevisiae expression vector; source: S. cerevisiae (w303, pep4 deleted), co-overexpressed with the other four condensin subunits from GAL1-10 promoters; in cell extract, and purified as the complex (IgG-agarose, 3C protease elution, heparin, Superose 6)
T1 sequence (looked up): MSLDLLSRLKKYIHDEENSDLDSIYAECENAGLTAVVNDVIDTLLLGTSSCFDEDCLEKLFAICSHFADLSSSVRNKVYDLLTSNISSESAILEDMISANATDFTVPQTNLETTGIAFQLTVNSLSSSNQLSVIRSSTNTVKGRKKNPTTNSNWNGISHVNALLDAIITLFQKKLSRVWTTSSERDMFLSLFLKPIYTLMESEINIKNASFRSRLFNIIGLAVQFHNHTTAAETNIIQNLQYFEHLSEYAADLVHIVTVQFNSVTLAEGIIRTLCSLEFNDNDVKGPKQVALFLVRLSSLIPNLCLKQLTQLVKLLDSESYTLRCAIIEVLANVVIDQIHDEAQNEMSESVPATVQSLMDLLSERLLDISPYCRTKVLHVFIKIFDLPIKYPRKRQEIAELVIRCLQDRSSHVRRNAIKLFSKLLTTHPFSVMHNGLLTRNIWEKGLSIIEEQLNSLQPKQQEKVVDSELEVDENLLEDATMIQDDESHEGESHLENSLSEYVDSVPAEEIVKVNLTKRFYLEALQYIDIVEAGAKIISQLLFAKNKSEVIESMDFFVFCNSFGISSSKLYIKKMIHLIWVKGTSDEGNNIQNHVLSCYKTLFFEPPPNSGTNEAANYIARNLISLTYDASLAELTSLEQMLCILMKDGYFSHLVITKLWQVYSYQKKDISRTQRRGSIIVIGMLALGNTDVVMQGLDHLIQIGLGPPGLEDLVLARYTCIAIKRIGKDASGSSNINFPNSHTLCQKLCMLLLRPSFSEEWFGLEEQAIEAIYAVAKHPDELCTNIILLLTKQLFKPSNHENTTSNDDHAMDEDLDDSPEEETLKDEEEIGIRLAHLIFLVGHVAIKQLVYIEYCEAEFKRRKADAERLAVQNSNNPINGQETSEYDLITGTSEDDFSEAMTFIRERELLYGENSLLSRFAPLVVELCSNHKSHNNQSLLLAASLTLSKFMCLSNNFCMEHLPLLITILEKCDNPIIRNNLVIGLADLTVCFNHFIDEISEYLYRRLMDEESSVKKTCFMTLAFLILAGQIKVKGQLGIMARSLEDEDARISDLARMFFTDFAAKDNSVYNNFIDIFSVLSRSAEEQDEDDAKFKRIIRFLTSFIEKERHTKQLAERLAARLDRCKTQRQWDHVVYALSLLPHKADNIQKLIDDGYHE
As to the kind of experiment: cross-linking; sulfo-SDA cross-link mass spectrometry (CLMS) of the purified five-subunit condensin complex with equimolar 124 bp linear dsDNA and 0.5 mM ADP·BeF3 (DNA-gripping state); CL buffer, 30°C 30 min, UV 365 nm on ice; 1% FDR at residue-pair level. As to conditions: both partners purified.

Consider supercoiled pBlueScript KSII(+), for which, in data set [1], the binding signal (% of input DNA recovered) is more than 40. In data set [2], this molecule came in with a binding signal (% of second dsDNA captured) of 10.

B1: Cnd2^Brn1 (fission yeast condensin kleisin subunit) (natural protein, S. pombe, UniProt Q9Y7R3 1-742, looked up)
chain: MKRASLGGHAPVSLPSLNDDALEKKRAKENSRKQRELRRSSALHSITPRRESLNNSSPFNSSHQVPVLSNFEEWIKLATDNKINSTNTWNFALIDYFHDMSLLRDGEDINFQKASCTLDGCVKIYTSRIDSVATETGKLLSGLANDSKVLQQTEEGEDAENDDEDLQKKKERKRAQRSVKTLVKDFESIRAKKFELECSFDPLFKKMCADFDEDGAKGLLMNHLCVDQHGRIVFDSSDTVIKDLENKDVEAESQEAVVAAPIESHDTEMTNVHDNISRETLNGIYKCYFTDIDQLTICPSLQGFEFDSKGNLDVSLLKSLSDEVNMITTTSLVDNTMEKTDADAASLSSDSDGEEGHIVHALEEMAYDEENPYVDVVPKAMDESENPDFGVDTEVNMADGSTMNENYSIISTAAANGVYEYFDKSMKKNWAGPEHWRIQALRKNINNASTVFNSSNTAESSDNVSRSLSSTERKKRRELDNAIDFLQEVDVEALFTPATSSLKLPKSHWKRHNRCLLPDDYQYDSKRLLQLFLKPKMSVLPNADGEGQLQLNKALDDENDLDGIQPHGFDSDGSDNVDEGIPPYGFGDSDSPKQTPLLTPPSSSGFGDNLLLTARLAKPDMLNYAKRAKKVDVRVLKEKLWKCLDLENTIKENSINSHIEGSEMESEETNMPVKSFFSTVNQLEETYEKKELKDISTSFAFICVLHLANEHNLELTSNEDFSDVFIRPGPNLTTLEALENDV
notes: Cnd2 (Brn1), S. pombe condensin kleisin subunit; cDNA cloned into an S. cerevisiae expression vector; The 2xProtA tag was still on the chain while the complex was captured on rabbit IgG-agarose (assay a1); also called Cnd2-2xProtA; source: S. cerevisiae (w303, pep4 deleted), co-overexpressed with the other four condensin subunits from GAL1-10 promoters; in cell extract, and purified as the …
On to B1, for which, in data set [3], the binding result was “binds”.
